Measured values reported in publication doi:10.1101/856021 (2019).

Target: Jil-1 peptide 984-1004 F989A (Drosophila, UniProt Q9V3I5 984-994, F989A)
Assay: ITC

B1: dP75 IBD-containing C-terminus region (residues 209-445) (domain or fragment)
chain: AAVTPIQKRSRPVNNIRNEMLMVYMPTAKCLGIVINYKKPESFESAAAEEAWMENARKEALELKLKLESGQINPESMPDRIVVEPTRSEIPKQEALRFIEELIEHEDALFMERDFIQLSQQLRECLGLRRANVGKCLEILEQFKEVEFTKLMLLRNPECVDIMRRLRRYVGNLELWKMDLSDEVEFKERAQTIRKVSSGIYDGFKSLFNPEPESEDNFWIDFCEKVKIYKTYTKNIN
- Kd: 122 µM
